Reference: patent US20100068806A1, “NOVEL METHODS AND REAGENTS DIRECTED TO PRODUCTION OF CELLS” (SUOMEN PUNAINEN RISTI, VERIPALVELU, priority 2007, published 2010)
“Also recorded” adds a separate entry of the source.

Tests used:
hESC [1] = test: Fluorescein-labelled lectin staining of hESC colonies on mouse feeder layers; type: binding, human; parameters: key to lectin ligand profile, hESC: + present in cell surface; − not present in cell surface; conditions: for inhibition of lectin binding to hESC by carbohydrate: MAA or PSA binding
Method: (§1) Lectin staining. Fluorescein-labeled lectins were from EY Laboratories (USA) and the stainings were performed essentially after manufacturer's instructions. The specificity of the staining was controlled in parallel experiments by inhibiting lectin binding with specific oligo- and monosaccharides.
(§2) From a practical perspective stem cell research would be best served by the identification of target structures on cell surface. To investigate whether individual glycan structures we had identified would be accessible to reagents targeting them at the cell surface we performed lectin labelling of two candidate structure types. Lectins are proteins that recognize glycans with specificity to certain glycan structures also in hESC (Venable et al., 2005). To study the localization of glycan components in hESC, stem cell colonies grown on mouse feeder cell layers were labeled in vitro by fluorescein-labelled lectins (FIG. 2). […] Such glycans would thus be available for recognition by more specific glycan-recognizing reagents such as antibodies. In contrast, the cell surfaces were not labelled by Pisum sativum agglutinin (PSA) that recognizes α-mannosylated glycans (FIG. 2b).
The glycome profile data was used to design glycan-specific labeling reagents for hESC. The most interesting glycan types were chosen to study their expression profiles by lectin histochemistry as exemplified in FIG. 5 for the lectins that recognize either α2,3-sialylated (MAA-lectin, FIG. 5A.) binding to the hESC cells or α-mannosylated glycans (PSA-lectin, FIG. 5B.) binding to the surfaces of feeder cells (MEF). The binding of the lectin reagents was inhibited by specific carbohydrate inhibitors, sialylα2-lactose and mannose, respectively (FIG. 5C. and 5D.).

[2] = tested on: hESC lines FES29 and FES30; test: hESC culture on lectin-coated plates in mEF-conditioned media; type: cell-based, human; parameters: key to Growth: +++: cells attach and can grow; cells attach and can grow but less cells/slower growth than +++; +: only few cells attach, one split; −: no cells after p1, cannot be splitted; #: less cells attach and slower early growth; conditions: for Growth: culture experiment in mEF-conditioned media; for growth of hESC on coated plates: mEF-conditioned media
From the text: FES 30 hESC line was used. hESCs were transferred from mEF to Matrigel™ and cultured according to the protocol found on the Geron Corporation website at: http://www.geron.com/showpage.asp?code=prodstprot
All passages were done using collagenase. The passages were also done using PBS without collagenase treatment.
The cells were transferred to ECA-coated 12-well plates (Corning) and cultured in mEF-conditioned media for 5-11 days, whereafter they were divided 1:2 or 3:4. RNA samples were extracted from a cell sample every second or third passage and analyzed for expression of stem cell and differentiation markers (FIG. 31).
The ECA (EY Laboratories, USA; L-5901-5) coating was performed as follows for 12 well plates. ECA lectin was stored frozen as stock solution of 1 mg/ml. It was thawed on ice and diluted as 100 μl lectin stock+600 μl PBS, sterile filtered (Millex-GV, SLGV 013 SL, 0.22 μm) in laminar hood. This solution, i.e. 100 μg/700 μl PBS solution was applied to each well and incubated overnight at +4 C. On the following day lectin solution was removed and wells were washed with 3×1 ml of sterile PBS.
(§3) hESC were cultured at least two passages feeder-free on Matrigel (BD Biosciences, Bedford, Mass., USA) before plating on lectin. Matrigel-culturing was continued side by side lectin-culturing as comparison. Cells were cultured during the whole experiment in standard Knockout™ DMEM media with 20% Knockout™ Serum Replacement and 8 ng/ml of recombinant basicFGF (all from Gibco/Invitrogen, Paisley, UK; Mikkola M. et al. BMC Dev. Biol. 6:40, 2006) conditioned on mouse feeder cells for 24 h. Cells were detached with collagenase IV while splitting.
(§4) Lectins were diluted in PBS and sterile filtered before applying on Nunclon cell culture plates (Nunc, Roskilde, Denmark). The amount of lectin was 27 μg/cm^2 and plates were incubated over night at +4° C. Before splitting cells on lectin wells were washed three times with PBS.

[3] = tested on: SSEA-4 enriched human embryonic stem cells (hESC); conditions: Venable et al. 2005; cited from earlier work
hESC [4] = test: Short (5 days) hESC culture on ECA types and conjugates; type: cell-based, human; parameters: key: +++: many cells attached on day 5; ++: scattered cells on day 5; +: few cells left on day 5; −: no attached cells after day 5; conditions: day 5
mouse feeder cells (MEF) = test: Fluorescein-labelled lectin staining of mouse feeder cells in hESC culture; type: binding; parameters: key: + present in cell surface; − not present in cell surface; conditions: MEF cell surface
Method: as §1, §2
The glycome profile data was used to design glycan-specific labeling reagents for hESC. […]

mouse feeder cell (mEF) = test: FITC-lectin and antibody labelling of mouse feeder cells, fluorescence microscopy; type: binding; conditions: fixed cells
[5] = tested on: bone marrow derived mesenchymal stem cells (BM MSC); test: FITC-lectin staining of fixed BM MSC, fluorescence microscopy; type: binding, human
[6] = tested on: human embryonic stem cell (hESC) lines FES 22 and FES 30; test: FITC-lectin and antibody labelling of hESC, fluorescence microscopy; type: binding
[7] = tested on: cord blood mononuclear cell (CB MNC); test: FACS analysis of FITC-lectin binding to cord blood mononuclear cells; parameters: species or system human; conditions: seven CB MNC preparations
[8] = tested on: Human Bone marrow-derived mesenchymal stem cells (MSC); test: Flow cytometry of CD105, CD45, CD73, HLA-DR in MSC grown on lectins; type: cell-based; conditions: MSC grown on lectin
Method: Briefly, bone marrow obtained during orthopedic surgery was cultured in Minimum Essential Alpha-Medium (α-MEM), supplemented with 20 mM HEPES, 10% FCS, 1× penicillin-streptomycin and 2 mM L-glutamine (all from Gibco). After a cell attachment period of 2 days the cells were washed with Ca2+ and Mg2+ free PBS (Gibco), and subcultured at a density of 2000-3000 cells/cm2 in the same media on 24-well chamber slides coated with lectin molecules. Cells were crown at 37° C. with 5% CO2, fresh media was changed twice a week until near confluence. MSCs were cultured on lectin coated well plates for five passages. MSC passages 5-10 were used in the experiment.
Proliferating MSCs in passage 5 were grown on different lectins for 5 days. Cells were washed with PBS and harvested into single cell suspensions by Versene solution. Detached cells were centrifuged at 600×g for five minutes at room temperature. Cell pellet was washed twice with 0.3% BSA-PBS, centrifuged at 600×g and resuspended in 0.3% BSA-PBS. Cells were placed in conical tubes in aliquots of 50 000 cells each. Cell aliquots were incubated with antibodies in dilution of 2 μl/10^5 cells for 30 minutes at +4° C. in the dark. After incubation cells were washed with 0.3% BSA-PBS, centrifuged and resuspended in 0.3% BSA-PBS.
Unlabeled cells and cells grown on plastic were used as controls. Antibody binding was detected by flow cytometry (FACSAria, Becton Dickinson). Data analysis was made with FACSDiva™ Flow Cytometry Software Version 5.02.

RUNX2 = test: Quantitative RT-PCR of RUNX2 in MSC grown on lectins; type: cell-based, human
From the text: (§5) Total cellular RNA from the BM derived mesenchymal stem cells grown for five passages on selected lectins was extracted by using RNeasy miniprep-kit (Qiagen, Chatsworth, Calif.) according to the manufacturers's instructions. RNA was then reverse transcribed to cDNA with High Capacity cDNA Reverse Transcription reagents according to manufacturers instructions (Applied Biosystems) and used as a template in TaqMan® PCR reaction. TaqMan® PCR reaction was used to estimate the quantitative levels of stem cell differentiation markers. TaqMan® PCR reaction performed in standard conditions using TaqMan® Universal Gene Expression Master Mix (Applied Biosystems) and Pre-developed Inventored Gene Expression Assays for FABP4 (Hs00609791_m1) and RUNX2 (Hs00231692_m1) (Applied Biosystems).
(§6) Real time quantitative PCR reactions were performed with the ABI PRISM 7000 Sequence Detector System (Applied Biosystem) in standard conditions. PCR amplifications were performed in a total volume of 50 μl, containing 1 μl cDNA sample. TaqMan® Universal Gene Expression Master Mix (Applied Biosystems) was used in all experiments. Pre-developed Inventored Gene Expression Assays for FABP4 (Hs00609791_m1) and RUNX2 (Hs00231692_m1) (Applied Biosystems) were used to estimate the quantitative levels of stem cell differentiation markers. Pre-developed TaqMan® assay reagents for endogenous control human TATA-box binding gene labeled with VIC reporter dye (Hs 999999_m19) was used for amplification of control gene.
(§7) PCR was started with 2 min at 50° C. and the initial 10 min denaturing temperature was 94° C., followed by a total of 40 cycles of 15 s of denaturing and 1 min of annealing and elongation at 60° C.

hESC (FES29) = test: FACS of Tra-1-60 and SSEA-3 in hESC cultured on lectins or Matrigel; type: cell-based, human
Method: as §3, §4

FABP4 = test: Quantitative RT-PCR of FABP4 in MSC grown on lectins; type: cell-based, human
From the text: as §5, §6, §7

[9] = MSC grown five passages on lectin
[10] = start point (UEA-1/DSA/Galectin 1 experiment)

CC(=O)N[C@H]1[C@H]([C@H](O)[C@H](O)CO)O[C@@](O[C@H]2[C@@H](O)[C@@H](CO)O[C@@H](O[C@H]3[C@H](O)[C@@H](O)C(O)O[C@@H]3CO)[C@@H]2O)(C(=O)O)C[C@@H]1O (some centres unmarked) [3′-sialyllactose]
inhibition of lectin binding to hESC by carbohydrate (hESC [1]): blocks MAA binding | inhibition of lectin binding to hESC by carbohydrate (hESC [1]; listed as α3′-sialyllactose): inhibited

O=C[C@@H](O)[C@@H](O)[C@H](O)[C@H](O)CO [D-mannose]
inhibition of lectin binding to hESC by carbohydrate (hESC [1]): inhibited; also recorded: blocks PSA binding

Galectin-1 in solution: Galectin-1 added in solution, not immobilized
Growth [2]: − | growth of hESC on coated plates [2]: could not support the cell growth

PHA-E: Phaseolus vulgaris lectin recognizing N-glycan core epitope (bisecting GlcNAc)
lectin binding to SSEA-4 enriched hESC [3]: partially bind to hESC | Growth [2]: +++# | growth of hESC on coated plates [2]: weak

PHA-L: Phaseolus vulgaris lectin
lectin binding to SSEA-4 enriched hESC [3]: partially bind to hESC

rGal-1: rGal-1, presumably recombinant galectin-1, coating in short hESC culture
short (5 days) culting (hESC [4]): −

B1: PNA: peanut lectin, Gal/GalNAc structures (protein, UniProt P02872 24-273, looked up)
Galactose-binding lectin: AETVSFNFNSFSEGNPAINFQGDVTVLSNGNIQLTNLNKVNSVGRVLYAMPVRIWSSATGNVASFLTSFSFEMKDIKDYDPADGIIFFIAPEDTQIPAGSIGGGTLGVSDTKGAGHFVGVEFDTYSNSEYNDPPTDHVGIDVNSVDSVKTVPWNSVSGAVVKVTVIYDSSTKTLSVAVTNDNGDITTIAQVVDLKAKLPERVKFGFSASGSLGGRQIHLIRSWSFTSTLITTTRRSIDNNEKKIMNMASA
lectin binding to SSEA-4 enriched hESC [3]: high binding percentage | lectin ligand profile, MEF (mouse feeder cells (MEF)): − | labelling of mEF (mouse feeder cell (mEF)): absence of specific binding | lectin binding / labelling of BM MSC ([5]; FITC-labelled lectin, cell surface of cultured BM MSC): less intense labelling | effect of sialidase treatment of the cells on lectin binding ([5]; sialidase treatment before lectin binding): also increased by sialidase treatment | lectin ligand profile, hESC (hESC [1]; hESC cell surface): + | labelling of hESC ([6]; fixed cells on mouse feeder layer): Abundant labelling | specific binding, hESC versus mEF ([6]; hESC compared with mEF): bound specifically to hESC but not to mEF | lectin binding to CB MNC [7]: variable binding between CB samples

B2: Galectin-1: bovine Galectin-1, N-acetyllactosamine binding lectin (protein, UniProt P11116 2-135, looked up)
Galectin-1: ACGLVASNLNLKPGECLRVRGEVAADAKSFLLNLGKDDNNLCLHFNPRFNAHGDVNTIVCNSKDAGAWGAEQRESAFPFQPGSVVEVCISFNQTDLTIKLPDGYEFKFPNRLNLEAINYLSAGGDFKIKCVAFE
CD 45 [8]: neg | CD73 [8]: pos | CD105 [8]: pos | HLA-DR [8]: 23.8% | RUNX- Endogenous control gene avarage Δct (RUNX2; [9]): 2.76 | Expression relative to plastic 2e − ΔΔCt (RUNX2; RUNX): 0.31 | ΔCt − Δctplastic relative ΔΔCt (RUNX2; RUNX, relative to plastic): 1.87 | expression of SSEA-3 (hESC (FES29); FES29, after 7 passages): 32.3% | expression of Tra-1-60 (hESC (FES29); FES29, after 7 passages): 21.6% | SSEA-3 (hESC (FES29); p7): 32.3 | Tra-1-60 (hESC (FES29); p7): 21.6 | SSEA-3 (hESC (FES29); [10]): 89.2 | Tra-1-60 (hESC (FES29); [10]): 69.6 | passages hESC cultured on lectin ([2]; FES29): 7 passages | Growth [2]: +++ | growth of hESC on coated plates [2]: also effective | Expression relative to plastic 2e − ΔΔCt (FABP4; FABP): 12.85 | ΔCt − Δctplastic relative ΔΔCt (FABP4; FABP, relative to plastic): −1.86 | FABP - Endogenous control gene avarage Δct (FABP4; [9]): 5.24
